Source: patent US20240238448

Target: ZFHD1-FKBP (ZF-FKBP fusion) (synthetic construct) (UniProt P08046+P14859)
Assay: cell_activity
Details: GFP reporter in 293-ZF-FKBP cells with CEM87 recruiting BRD4; dose-dependent; indirect evidence of binding; no response in WT 293 cells

Chain of ZFHD1-FKBP (ZF-FKBP fusion) (synthetic construct) (P08046 333-390, chain 1 of 2): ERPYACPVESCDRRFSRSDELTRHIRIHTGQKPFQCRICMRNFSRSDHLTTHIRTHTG
Chain of ZFHD1-FKBP (ZF-FKBP fusion) (synthetic construct) (P14859 378-439, chain 2 of 2): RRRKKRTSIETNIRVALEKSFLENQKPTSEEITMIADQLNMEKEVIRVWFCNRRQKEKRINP

## ZF binding domain recognition sequence (ZFHD1 cognate site) upstream of JET promoter in AAV2-BD-JET-GFP
  activity (fold activation): > 10
